How the values were obtained:
[1] = molecular target: T1, human soluble urokinase plasminogen activator receptor (suPAR) (human, UniProt Q03405 23-303, limits assumed); assay: off-rate (kdis) screen of scFv clones, biosensor (Octet)
T1 construct: Target antigen of the off-rate screen; also called hsuPAR; human suPAR

[2] = molecular target: T2, cynomolgus soluble urokinase plasminogen activator receptor (suPAR) (cynomolgus, UniProt Q9GK78 23-303, limits assumed); assay: as above
T2 construct: Target antigen of the off-rate screen; also called cynomolgus uPAR; cynomolgus suPAR
T2 sequence (Q9GK78 23-303 limits assumed): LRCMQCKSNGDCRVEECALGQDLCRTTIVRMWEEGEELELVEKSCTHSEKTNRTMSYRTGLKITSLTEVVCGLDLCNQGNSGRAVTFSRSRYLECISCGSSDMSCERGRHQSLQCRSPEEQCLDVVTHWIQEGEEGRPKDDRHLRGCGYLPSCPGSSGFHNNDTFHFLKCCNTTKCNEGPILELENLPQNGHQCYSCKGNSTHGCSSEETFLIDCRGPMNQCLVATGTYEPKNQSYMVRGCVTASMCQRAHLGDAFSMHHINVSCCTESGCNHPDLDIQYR

[3] = molecular target: T3, human soluble urokinase plasminogen activator receptor (hsuPAR) (human, UniProt Q03405 23-303, limits assumed); assay: BLI (Octet) off-rate screen of scFv clones
T3 construct: Target antigen of the off-rate screen; also called human suPAR; rhuPAR-His
T3 sequence (Q03405 23-303 limits assumed): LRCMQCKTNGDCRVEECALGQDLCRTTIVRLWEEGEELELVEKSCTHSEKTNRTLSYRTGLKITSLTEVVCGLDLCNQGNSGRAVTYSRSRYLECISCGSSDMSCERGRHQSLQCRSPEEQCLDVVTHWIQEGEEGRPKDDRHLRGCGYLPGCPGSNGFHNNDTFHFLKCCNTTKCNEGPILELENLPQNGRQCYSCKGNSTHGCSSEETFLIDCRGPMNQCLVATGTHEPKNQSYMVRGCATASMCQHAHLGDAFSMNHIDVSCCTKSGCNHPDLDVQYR

cynomolgus suPAR = molecular target: T4, cynomolgus suPAR (cynomolgus, UniProt Q9GK78 23-303, limits assumed); assay: BLI (Octet) off-rate screen of scFv clones
T4 construct: Target antigen of the off-rate screen; also called cynomolgus uPAR; cynoPLAUR-His
T4 sequence (Q9GK78 23-303 limits assumed): as the sequence (Q9GK78 23-303 limits assumed) above

T1 sequence (Q03405 23-303 limits assumed): as the sequence (Q03405 23-303 limits assumed) above

Row | Binder | koff [1] | koff [2] | koff [3] | koff (cynomolgus suPAR)
1 | suPAR_DB01_E12 (scFv, V domains shown, screened as scFv) VH: QVQLVQSGAEVKKPGASVKVSCKASGGTFSSYAISWVRQAPGQGLEWLGVINPGGGGTNYAQKFQGRVTMTRDTSTSTVYMELSSLRSEDTAVYYCARGYDVDWFVTWGQGTLVTVSS VL: DIQMTQSPSSLSASVGDRVTITCQASQDISNYINWYQQKPGKAPKLLIYDASNLASGVPSRFSGSGSGTDFTLTISSLQPEDFATYYCQQYHSYPPTFGGGTKVEIK | 0.0117 s⁻¹ | 0.0212 s⁻¹ |  | 
2 | suPAR_DB01_D08 (scFv, V domains shown, screened as scFv) VH: QVQLVQSGAEVKKPGASVKVSCKASGYTFTSYYMHWVRQAPGQGLEWMGWIDHENGSTIYAQKFQGRVTMTRDTSTSTVYMELSSLRSEDTAVYYCARGYDVDWFVYWGQGTLVTVSS VL: DIQMTQSPSSLSASVGDRVTITCRASSSVSYMYWYQQKPGKAPKLLIYRTSNLASGVPSRFSGSGSGTDFTLTISSLQPEDFATYYCQQYHSYPPTFGGGTKVEIK | 0.000666 s⁻¹ | 7.01e-07 s⁻¹ |  | 
3 | suPAR_DB03_B03 (scFv, V domains shown, screened as scFv) VH: QVQLVQSGAEVKKPGASVKVSCKASGYTFTNYYMHWVRQAPGQGLEWMGWIDPENGSTIYDQKFQGRVTMTRDTSTSTVYMELSSLRSEDTAVYYCARGYDVDWFVYWGQGTLVTVSS VL: DIQMTQSPSSLSASVGDRVTITCSARSSVSYMYWYQQKPGKAPKLLIYRTSNLASGVPSRFSGSGSGTDFTLTISSLQPEDFATYYCQQYHSYPPTFGGGTKVEIK |  |  | 0.00347 s⁻¹ | 0.00026 s⁻¹
4 | suPAR_DB01_E04 (scFv, V domains shown, screened as scFv) VH: QVQLVQSGAEVKKPGASVKVSCKASGYTFTGYYMHWVRQAPGQGLEWMGWIDHENGNTIYDQKFQGRVTMTRDTSTSTVYMELSSLRSEDTAVYYCARGYDVDWFVYWGQGTLVTVSS VL: DIQMTQSPSSLSASVGDRVTITCSARQSVSYMYWYQQKPGKAPKLLIYRTSNLASGVPSRFSGSGSGTDFTLTISSLQPEDFATYYCQQYHSYPPTFGGGTKVEIK | 0.0014 s⁻¹ | 0.00031 s⁻¹ |  | 
5 | suPAR_DB02_H06 (scFv, V domains shown, screened as scFv) VH: QVQLVQSGAEVKKPGASVKVSCKASGFNIKDYYIHWVRQAPGQGLEWMGWIDPEGGNTIYAQKFQGRVTMTRDTSTSTVYMELSSLRSEDTAVYYCARGYDVDWFVYWGQGTLVTVSS VL: DIQMTQSPSSLSASVGDRVTITCRARSSVSYMYWYQQKPGKAPKLLIYRTSNLASGVPSRFSGSGSGTDFTLTISSLQPEDFATYYCQQYHSYPPTFGGGTKVEIK |  |  | 0.00305 s⁻¹ | 0.000393 s⁻¹
6 | suPAR_DB01_E01 (scFv, V domains shown, screened as scFv) VH: QVQLVQSGAEVKKPGASVKVSCKASGYSFTSYYMHWVRQAPGQGLEWMGWIDPEGGSTIYDQKFQGRVTMTRDTSTSTVYMELSSLRSEDTAVYYCARGYDVDWFVYWGQGTLVTVSS VL: DIQMTQSPSSLSASVGDRVTITCSARSSVSYMYWYQQKPGKAPKLLIYRTSNLASGVPSRFSGSGSGTDFTLTISSLQPEDFATYYCQQYHSYPPTFGGGTKVEIK | 0.00474 s⁻¹ | 0.000254 s⁻¹ |  | 
7 | suPAR_DB01_E11 (scFv, V domains shown, screened as scFv) VH: QVQLVQSGAEVKKPGASVKVSCKASGYTFTNYYMHWVRQAPGQGLEWMGWIDHENGSTIYAQKFQGRVTMTRDTSTSTVYMELSSLRSEDTAVYYCARGYDVDWFVYWGQGTLVTVSS VL: DIQMTQSPSSLSASVGDRVTITCSARSSVSYMYWYQQKPGKAPKLLIYRTSNLASGVPSRFSGSGSGTDFTLTISSLQPEDFATYYCQQYHSYPPTFGGGTKVEIK | 0.000638 s⁻¹ | 0.000369 s⁻¹ |  | 
8 | suPAR_DB02_H07 (scFv, V domains shown, screened as scFv) VH: QVQLVQSGAEVKKPGASVKVSCKASGYTFTSYYVHWVRQAPGQGLEWMGWVDPSSGATDYAQKFQGRVTMTRDTSTSTVYMELSSLRSEDTAVYYCARGYDVDWFVYWGQGTLVTVSS VL: DIQMTQSPSSLSASVGDRVTITCSARSSVSYMYWYQQKPGKAPKLLIYRTSNLASGVPSRFSGSGSGTDFTLTISSLQPEDFATYYCQQYHSYPPTFGGGTKVEIK |  |  | 0.00317 s⁻¹ | 0.00146 s⁻¹
9 | suPAR_DB01_E10 (scFv, V domains shown, screened as scFv) VH: QVQLVQSGAEVKKPGASVKVSCKASGYTFTGYYMHWVRQAPGQGLEWMGWIDHENGSTSYDQKFQGRVTMTRDTSTSTVYMELSSLRSEDTAVYYCARGYDVDWFVYWGQGTLVTVSS VL: DIQMTQSPSSLSASVGDRVTITCRARQSVSYMYWYQQKPGKAPKLLIYRTSNLASGVPSRFSGSGSGTDFTLTISSLQPEDFATYYCQQYHSYPPTFGGGTKVEIK | 0.00162 s⁻¹ | 0.000104 s⁻¹ |  | 
10 | suPAR_DB01_E09 (scFv, V domains shown, screened as scFv) VH: QVQLVQSGAEVKKPGASVKVSCKASGYTFTSYYMHWVRQAPGQGLEWMGWIDHENGNTIYDQKFQGRVTMTRDTSTSTVYMELSSLRSEDTAVYYCARGYDVDWFVYWGQGTLVTVSS VL: DIQMTQSPSSLSASVGDRVTITCSARSSISYMYWYQQKPGKAPKLLIYRTSNLQSGVPSRFSGSGSGTDFTLTISSLQPEDFATYYCQQYHSYPPTFGGGTKVEIK | 0.00446 s⁻¹ | 0.000246 s⁻¹ |  | 
11 | suPAR_DB01_E07 (scFv, V domains shown, screened as scFv) VH: QVQLVQSGAEVKKPGASVKVSCKASGYTFTSYYMHWVRQAPGQGLEWMGWIDHENGNTIYDQKFQGRVTMTRDTSTSTVYMELSSLRSEDTAVYYCARGYDVDWFVYWGQGTLVTVSS VL: DIQMTQSPSSLSASVGDRVTITCRASSSVSYMYWYQQKPGKAPKLLIYRTSNLASGVPSRFSGSGSGTDFTLTISSLQPEDFATYYCQQYHSYPPTFGGGTKVEIK | 0.00228 s⁻¹ | 6.72e-05 s⁻¹ |  | 
12 | suPAR_DB01_D10 (scFv, V domains shown, screened as scFv) VH: QVQLVQSGAEVKKPGASVKVSCKASGYTFTGYYMHWVRQAPGQGLEWMGWIDHENGSTSYDQKFQGRVTMTRDTSTSTVYMELSSLRSEDTAVYYCARGYDVDWFVYWGQGTLVTVSS VL: DIQMTQSPSSLSASVGDRVTITCSARQSVSYMYWYQQKPGKAPKLLIYRTSNLASGVPSRFSGSGSGTDFTLTISSLQPEDFATYYCQQYHSYPPTFGGGTKVEIK | 0.00147 s⁻¹ | 0.000148 s⁻¹ |  | 
13 | suPAR_DB01_D12 (scFv, V domains shown, screened as scFv) VH: QVQLVQSGAEVKKPGASVKVSCKASGYTFTSYYMHWVRQAPGQGLEWMGWIDPENGSTIYDQKFQGRVTMTRDTSTSTVYMELSSLRSEDTAVYYCARGYDVDWFVYWGQGTLVTVSS VL: DIQMTQSPSSLSASVGDRVTITCSARSSVSYMYWYQQKPGKAPKLLIYRTSNLASGVPSRFSGSGSGTDFTLTISSLQPEDFATYYCQQYHSYPPTFGGGTKVEIK | 0.00382 s⁻¹ | 0.000232 s⁻¹ |  | 
14 | suPAR_DB02_H08 (scFv, V domains shown, screened as scFv) VH: QVQLVQSGAEVKKPGASVKVSCKASGYTFTGYYIHWVRQAPGQGLEWMGWIDPENGSTIYDQKFQGRVTMTRDTSTSTVYMELSSLRSEDTAVYYCARGYDVDWFVYWGQGTLVTVSS VL: DIQMTQSPSSLSASVGDRVTITCSARSSVSYMYWYQQKPGKAPKLLIYRTSNLASGVPSRFSGSGSGTDFTLTISSLQPEDFATYYCQQYHSYPPTFGGGTKVEIK |  |  | 0.00485 s⁻¹ | 0.000228 s⁻¹
15 | suPAR_DB01_E06 (scFv, V domains shown, screened as scFv) VH: QVQLVQSGAEVKKPGASVKVSCKASGYTFINYYMHWVRQAPGQGLEWMGWIDPENGNTIYDQKFQGRVTMTRDTSTSTVYMELSSLRSEDTAVYYCARGYDVDWFVYWGQGTLVTVSS VL: DIQMTQSPSSLSASVGDRVTITCSARSSVSYMYWYQQKPGKAPKLLIYRTSNLASGVPSRFSGSGSGTDFTLTISSLQPEDFATYYCQQYHSYPPTFGGGTKVEIK | 0.00224 s⁻¹ | 0.000218 s⁻¹ |  | 
16 | suPAR_DB01_F01 (scFv, V domains shown, screened as scFv) VH: QVQLVQSGAEVKKPGASVKVSCKASGYTFTSYYVHWVRQAPGQGLEWMGWIDHENGSTIYAQKFQGRVTMTRDTSTSTVYMELSSLRSEDTAVYYCARGYDVDWFVYWGQGTLVTVSS VL: DIQMTQSPSSLSASVGDRVTITCSARSSVSYMYWYQQKPGKAPKLLIYRTSNLASGVPSRFSGSGSGTDFTLTISSLQPEDFATYYCQQYHSYPPTFGGGTKVEIK | 0.000618 s⁻¹ | 0.000203 s⁻¹ |  | 
17 | suPAR_DB01_E02 (scFv, V domains shown, screened as scFv) VH: QVQLVQSGAEVKKPGASVKVSCKASGYTFTSYYMHWVRQAPGQGLEWMGWIDPEGGSTIYDQKFQGRVTMTRDTSTSTVYMELSSLRSEDTAVYYCARGYDVDWFVYWGQGTLVTVSS VL: DIQMTQSPSSLSASVGDRVTITCSARSSVSYMYWYQQKPGKAPKLLIYRTSNLASGVPSRFSGSGSGTDFTLTISSLQPEDFATYYCQQYHSYPPTFGGGTKVEIK | 0.00469 s⁻¹ | 0.000347 s⁻¹ |  | 
18 | suPAR_DB01_E03 (scFv, V domains shown, screened as scFv) VH: QVQLVQSGAEVKKPGASVKVSCKASGYTFTDYYMHWVRQAPGQGLEWMGWIDHENGNTSYAQKFQGRVTMTRDTSTSTVYMELSSLRSEDTAVYYCARGYDVDWFVYWGQGTLVTVSS VL: DIQMTQSPSSLSASVGDRVTITCSARSSVSYMYWYQQKPGKAPKLLIYRTSNLASGVPSRFSGSGSGTDFTLTISSLQPEDFATYYCQQYHSYPPTFGGGTKVEIK | 0.00402 s⁻¹ | 5.44e-05 s⁻¹ |  | 
19 | suPAR_DB01_D09 (scFv, V domains shown, screened as scFv) VH: QVQLVQSGAEVKKPGASVKVSCKASGYTFTNYYMHWVRQAPGQGLEWMGWIDHSNGNTIYAQKFQGRVTMTRDTSTSTVYMELSSLRSEDTAVYYCARGYDVDWFVYWGQGTLVTVSS VL: DIQMTQSPSSLSASVGDRVTITCSARSSVSYMYWYQQKPGKAPKLLIYRTSNLASGVPSRFSGSGSGTDFTLTISSLQPEDFATYYCQQYHSYPPTFGGGTKVEIK | 0.00109 s⁻¹ | 0.000506 s⁻¹ |  | 
20 | suPAR_DB01_E08 (scFv, V domains shown, screened as scFv) VH: QVQLVQSGAEVKKPGASVKVSCKASGYTFTGYYIHWVRQAPGQGLEWMGWIDHENGSTIYDQKFQGRVTMTRDTSTSTVYMELSSLRSEDTAVYYCARGYDVDWFVYWGQGTLVTVSS VL: DIQMTQSPSSLSASVGDRVTITCSARSSVSYMYWYQQKPGKAPKLLIYRTSNLASGVPSRFSGSGSGTDFTLTISSLQPEDFATYYCQQYHSYPPTFGGGTKVEIK | 0.000564 s⁻¹ | 5.85e-07 s⁻¹ |  | 

Source: patent US20250215104A1 (WALDEN BIOSCIENCES, published 2025)
